From the supplement of paper PMC7877785
± gives the uncertainty stated by the source.

Assay: self-splicing fitness, log relative to wild type (ln ratio); higher = more splicing; Tetrahymena group I intron in knt gene, E. coli kanamycin selection, DiMSum; sequences stand for … in CUCUCU…GGAGGGAAAAGUUAUCAGGCAUGCACCUGGUAGCUAGUCUUUAAACCAAUAGAUUGCAUCGGUUUAAAAGGCAAGACCGUCAAAUUGCGGGAAAGGGGUCAACAGCCGUUCAGUACCAAGUCUCAGGGGAAACUUUGAGAUGGCCUUGCAAAGGGUAUGGUAAUAAGCUGACGGACAUGGUCCUAACCACGCAGCCAAGUCCUAAGUCAACAGAUCUUCUGUUGAUAUGGAUGCAGUUCACAGACUAAAUGUCGGUCGGGGAAGAUGUAUUCUUCUCAUAAGAUAUAGUCGGACCUCUCCUUAAUGGGAGCUAGCGGAUGAAGUGAUGCAACACUGGAGCCGCUGGGAACUAAUUUGUAUGCGAAAGUAUAUUGAUUAGUUUUGGAGUACUCGUGGUCG
Outline: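 Pooled colonies went to amplicon sequencing on an Illumina HiSeq 2500 after six replicate transformations. The plates were LB agar with 100 μg/mL carbenicillin, 50 μM IPTG and 0.2% rhamnose, with or without 25 μg/mL kanamycin, incubated overnight at 37°C or 30°C. The E. coli BL21(DE3) library had all eight P1ex-region intron nucleotides randomised, the intron placed in the knt kanamycin-resistance gene on pET-22b(+). DiMSum fitness is the error-weighted combination of replicate fold changes, kanamycin against none, normalised to wild type.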

Sequence	self-splicing fitness (ln) (30 °C)	self-splicing fitness (ln) (37 °C)
UUUAAGCAAUAUUACGCCUA	-1.34 ± 0.21	0.351 ± 0.21
UUUAAGCAAUAUUACGCCUC	–	-0.852 ± 0.36
UUUAAGCAAUAUUACGCGCA	-0.212 ± 0.11	0.0171 ± 0.15
UUUAAGCAAUAUUACGCUAA	-2.34 ± 0.17	-1.09 ± 0.19
UUUAAGCAAUAUUACGCUAU	-2.94 ± 0.27	-0.849 ± 0.21
UUUAAGCAAUAUUACGGAGU	-3.04 ± 0.39	-1.18 ± 0.43
UUUAAGCAAUAUUACGGAUA	-1.12 ± 0.18	-1.13 ± 0.18
UUUAAGCAAUAUUACGGCAG	-0.39 ± 0.098	0.179 ± 0.15
UUUAAGCAAUAUUACGGCCU	-1.69 ± 0.14	-0.999 ± 0.17
UUUAAGCAAUAUUACGGUCG	-0.794 ± 0.067	-0.269 ± 0.089
UUUAAGCAAUAUUACGUAUA	-1.95 ± 0.12	-1.54 ± 0.14
UUUAAGCAAUAUUACGUUUA	-2.69 ± 0.17	-2.1 ± 0.11
UUUCAGCAAUAUUACGAAGC	-0.935 ± 0.36	–
UUUCAGCAAUAUUACGACUC	-2.82 ± 0.18	-0.13 ± 0.14
UUUCAGCAAUAUUACGAGCG	-0.768 ± 0.09	-0.289 ± 0.11
UUUCAGCAAUAUUACGAGUC	-3.12 ± 0.29	-1.97 ± 0.37
UUUCAGCAAUAUUACGAUUU	-1.34 ± 0.098	-0.0319 ± 0.12
UUUCAGCAAUAUUACGCGGU	-3.46 ± 0.25	-1.92 ± 0.2
UUUCAGCAAUAUUACGCGUC	-3.56 ± 0.15	-2.01 ± 0.14
UUUCAGCAAUAUUACGCGUU	-2.13 ± 0.21	-0.852 ± 0.17
UUUCAGCAAUAUUACGGCCA	-1.3 ± 0.19	-0.656 ± 0.11
UUUCAGCAAUAUUACGGCUU	-1.39 ± 0.13	-0.047 ± 0.13
UUUCAGCAAUAUUACGGUUG	-1.62 ± 0.091	-1.1 ± 0.12
UUUCAGCAAUAUUACGUGUG	-0.986 ± 0.067	-0.142 ± 0.075
UUUCAGCAAUAUUACGUUAC	-4.82 ± 0.28	-2.66 ± 0.16
UUUCAGCAAUAUUACGUUCA	-1.04 ± 0.13	-0.407 ± 0.15
UUUCAGCAAUAUUACGUUGG	-4.07 ± 0.18	-2.52 ± 0.2
UUUCAGCAAUAUUACGUUUG	-1.91 ± 0.086	-1.12 ± 0.1
UUUGAGCAAUAUUACGAGAG	-2.2 ± 0.32	–
UUUGAGCAAUAUUACGAGGU	-4.2 ± 0.46	-3.66 ± 0.46
